Measured values published in US20250326840A1 (QURE BIOTECHNOLOGY SHANGHAI, published 2025).
Where a chain is given by its changes, count along the chain named. In names and notes the source's numbering stands.

T1: QP538 (SIRPαV9-mFC(mIgG2a)) (human, limits assumed)
T1 construct: also called human SIRPα V9 recombinant protein (QP538)
T1 chain: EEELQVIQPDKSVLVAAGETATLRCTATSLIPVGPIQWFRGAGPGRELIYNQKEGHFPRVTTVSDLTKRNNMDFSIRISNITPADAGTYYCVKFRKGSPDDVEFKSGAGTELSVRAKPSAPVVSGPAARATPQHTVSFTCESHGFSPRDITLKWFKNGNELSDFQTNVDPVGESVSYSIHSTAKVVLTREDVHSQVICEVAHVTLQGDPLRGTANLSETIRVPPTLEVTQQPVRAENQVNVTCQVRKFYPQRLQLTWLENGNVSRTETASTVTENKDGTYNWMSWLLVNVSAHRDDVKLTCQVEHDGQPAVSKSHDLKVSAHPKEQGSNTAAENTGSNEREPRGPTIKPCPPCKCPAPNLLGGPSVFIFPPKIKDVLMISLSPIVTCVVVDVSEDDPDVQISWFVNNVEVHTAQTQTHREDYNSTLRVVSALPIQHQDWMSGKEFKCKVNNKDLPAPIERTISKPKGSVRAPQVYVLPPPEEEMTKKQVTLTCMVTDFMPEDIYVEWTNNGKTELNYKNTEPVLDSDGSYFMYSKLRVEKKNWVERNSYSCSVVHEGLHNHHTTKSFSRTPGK

T2: QP093 (human SIRPα V1 ECD(E31-R370)-mFC(IgG2a)) (human)
T2 construct: also called Human SIRPα V1 recombinant protein (QP093)
T2 chain: T1 chain with S79G

B1: QP37503751 (1H9 analog) (antibody, human IgG1, kappa, N297A, V domains shown)
VH: QVQLVQSGAEVKKPGASVKVSCKASGYTFTSYWITWVKQAPGQGLEWIGDIYPGSGSTNHIEKFKSKATLTVDTSISTAYMELSRLRSDDTAVYYCATGYGSSYGYFDYWGQGTLVTVSS
VL: DIQMTQSPSSLSASVGDRVTITCRASENIYSYLAWYQQKPGKAPKLLIYTAKTLAEGVPSRFSGSGSGTDFTLTISSLQPEDFATYYCQHQYGPPFTFGQGTKLEIKR
notes: also called hz1H9 hIgG1(N297A)
B2: QP256279 (antibody, human IgG4, V domains shown)
VH: QVQLVQSGAEVKKPGASVKVSCKASGYTFTNYWINWVRQAPGQGLEWIAMIDPSDSETHYNQIFKDRATLTTDTSTSTAYMELRSLRSDDTAVYYCAMDYGSLYAMDYWGRGTLVTVSS
VL: DIVLTQSPDSLAVSLGERATINCRASQSVRSSGYNWIFWYQQKPGQPPKLLIYLASNRDSGVPDRFSGSGSGTDFTLTISSLQAEDVAVYYCQHSRELPTFGQGTKLEIK
notes: Human IgG4 heavy constant region and kappa CL
B3: QP32700279 (antibody, human IgG1, kappa, L234A L235A, V domains shown)
VH: B2 VH
VL: DIVLTQSPDSLAVSLGERATINCRASQSVRSSGYNWIFWYQQKPGQPPKLLIYLASNRDSGVPDRFSGSGSGTDFTLTISSLQAEDVAVYYCQHSRELPTFGQGTKLEIKR
notes: also called SIRPα monoclonal antibody CHO71
B4: QP250251 (18D5 analog) (antibody, human IgG4 S228P, kappa, V domains shown)
VH: QVQLQQPGAELVRPGSSVKLSCKASGYTFTSYWVHWVKQRPIQGLEWIGNIDPSDSDTHYNQKFKDKASLTVDKSSSTAYMQLSSLTFEDSAVYYCVRGGTGTMAWFAYWGQGTLVTVSA
VL: DVVMTQTPLSLPVSLGDQASISCRSSQSLVHSYGNTYLYWYLQKPGQSPKLLIYRVSNRFSGVPDRFSGSGSGTDFTLKISRVEAEDLGVYFCFQGTHVPYTFGSGTKLEIKR
notes: also called SIRPα antibody 18D5 from OSE
B5: QP026249 (KWAR23 analog) (antibody, human IgG4 S228P, kappa)
heavy: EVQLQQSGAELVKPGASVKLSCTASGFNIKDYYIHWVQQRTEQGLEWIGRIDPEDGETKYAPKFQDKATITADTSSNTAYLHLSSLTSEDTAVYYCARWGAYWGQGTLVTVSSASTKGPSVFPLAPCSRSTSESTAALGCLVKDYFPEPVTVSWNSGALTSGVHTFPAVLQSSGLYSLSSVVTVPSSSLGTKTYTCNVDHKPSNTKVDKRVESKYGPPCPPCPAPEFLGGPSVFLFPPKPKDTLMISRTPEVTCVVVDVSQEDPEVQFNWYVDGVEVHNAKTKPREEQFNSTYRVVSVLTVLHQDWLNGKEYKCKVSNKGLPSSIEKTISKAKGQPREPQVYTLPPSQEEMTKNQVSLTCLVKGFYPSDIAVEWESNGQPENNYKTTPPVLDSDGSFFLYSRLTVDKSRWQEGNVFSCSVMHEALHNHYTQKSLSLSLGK
light: QIVLTQSPAIMSASPGEKVTLTCSASSSVSSSYLYWYQQKPGSSPKLWIYSTSNLASGVPARFSGSGSGTSYSLTISSMEAEDAASYFCHQWSSYPRTFGAGTKLELKRTVAAPSVFIFPPSDEQLKSGTASVVCLLNNFYPREAKVQWKVDNALQSGNSQESVTEQDSKDSTYSLSSTLTLSKADYEKHKVYACEVTHQGLSSPVTKSFNRGEC
notes: also called KAWA23 analog; control antibody KWAR23 (QP026249), human IgG4

Legend:
[1] = target: T3, QP537 (SIRPαV8-mFC(mIgG2a)) (human); assay: ELISA, human SIRPα V8 recombinant protein (QP537) coated, HRP anti-human Fc detection
T3 construct: also called human SIRPα V8 recombinant protein (QP537)

[2] = target: T1, QP538 (SIRPαV9-mFC(mIgG2a)); assay: ELISA, human SIRPα V9 recombinant protein (QP538) coated, HRP anti-human Fc detection
[3] = target: SIRPα V2 fusion Fc (mouse IgG2a) (human); assay: ELISA, SIRPα V2-mouse IgG2a Fc coated, anti-hFab detection; unit from the x axis Log(Conc.(nM))
[4] = target: SIRPα V3 fusion Fc (mouse IgG2a) (human); assay: ELISA, SIRPα V3-mouse IgG2a Fc coated, anti-hFab detection; unit from the x axis Log(Conc.(nM))
[5] = target: T4, QP096 (human SIRPα V2 ECD(E31-R370)-flag-his) (human); assay: SPR, Biacore
T4 construct: the construct carries flag and his tags; also called SIRPαV2-Flag-his; Human SIRPα V2 (QP096)
T4 sequence (chain, as listed by the source limits assumed): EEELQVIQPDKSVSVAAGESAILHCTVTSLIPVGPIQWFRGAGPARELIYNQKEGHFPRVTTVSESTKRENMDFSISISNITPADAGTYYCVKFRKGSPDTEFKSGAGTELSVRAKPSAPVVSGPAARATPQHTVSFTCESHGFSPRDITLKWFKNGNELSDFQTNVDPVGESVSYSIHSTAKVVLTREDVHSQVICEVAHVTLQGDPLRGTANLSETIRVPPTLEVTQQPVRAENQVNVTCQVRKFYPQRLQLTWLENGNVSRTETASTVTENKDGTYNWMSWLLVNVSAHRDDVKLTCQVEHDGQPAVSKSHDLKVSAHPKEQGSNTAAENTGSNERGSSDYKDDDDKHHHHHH

[6] = target: T5, QP094 (human SIRPα V1 ECD(E31-R370)-flag-his) (human, UniProt P78324 31-370); assay: SPR, Biacore
T5 construct: the construct carries flag and his tags; also called SIRPαV1-flag-his; SIRPαV1-his (QP094)

[7] = target: SIRPα V7 fusion Fc (mouse IgG2a) (human); assay: ELISA, SIRPα V7-mouse IgG2a Fc coated, anti-hFab detection; unit from the x axis Log(Conc.(nM))
[8] = target: T6, QP002 (biotinylated in the blocking assays, sites not given); assay: blocking ELISA: QP001.2 (CD47) coated, biotin-QP002 (SIRPα-FC) mixed with the antibody, HRP-streptavidin; blocked ligand: CD47; unit from the x axis Log[Conc.(ug/ml)]
T6 construct: also called SIRPα-FC; Biotin-QP002

[9] = target: T4, QP096 (human SIRPα V2 …); assay: binding ELISA, antigen coated
[10] = target: T5, QP094 (human SIRPα V1 …); assay: binding ELISA, antigen coated
[11] = target: SIRPα V10 fusion Fc (mouse IgG2a) (human); assay: ELISA, SIRPα V10-mouse IgG2a Fc coated, anti-hFab detection; unit from the x axis Log(Conc.(nM))
[12] = target: SIRPα V8 fusion Fc (mouse IgG2a) (human); assay: ELISA, SIRPα V8-mouse IgG2a Fc coated, anti-hFab detection; unit from the x axis Log(Conc.(nM))
[13] = target: T7, QP095 (human SIRPα V2 ECD(E31-R370)-mFC(IgG2a)) (human); assay: ELISA, QP095 (SIRPα V2) coated, anti-hFab detection; unit from the x axis Log(Conc.(nM))
T7 construct: also called human SIRPα V2 recombinant protein (QP095)

[14] = target: T2, QP093 (human SIRPα V1 …); assay: ELISA, QP093 (SIRPα V1) coated, anti-hFab detection; unit from the x axis Log(Conc.(nM))
[15] = target: QP003 (PDL1-his); assay: ELISA, QP003 (PDL1-his) captured on coated anti-his, anti-hFc detection; unit from the x axis; the curve is flat at the baseline, the fit is marked ambiguous (~)
Chain of QP003 (PDL1-his) (chain, as listed by the source limits assumed): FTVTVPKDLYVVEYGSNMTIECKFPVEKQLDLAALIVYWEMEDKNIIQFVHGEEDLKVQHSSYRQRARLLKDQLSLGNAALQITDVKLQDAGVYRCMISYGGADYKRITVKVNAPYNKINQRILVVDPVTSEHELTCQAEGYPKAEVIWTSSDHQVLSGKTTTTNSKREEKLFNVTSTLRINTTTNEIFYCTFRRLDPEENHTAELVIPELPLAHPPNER

Row | Binder | EC50 [1] | EC50 [2] | EC50 [3] | EC50 [4] | Kd [5] | Kd [6] | EC50 [7] | IC50 [8] | EC50 [9] | EC50 [10] | EC50 [11] | EC50 [12] | EC50 [13] | EC50 [14] | EC50 [15]
1 | B1 | 0.908 nM | 0.438 nM | – | – | – | – | – | – | – | – | – | – | – | – | –
2 | B2 | – | – | 0.0682 nM | 0.0635 nM | 0.0446 nM | 0.0354 nM | 0.0707 nM | 12.9 ng/mL | 0.624 ng/mL | 0.651 ng/mL | 0.0682 nM | 0.0851 nM | – | – | –
3 | B3 | 0.341 nM | 0.361 nM | – | – | – | – | – | – | – | – | – | – | 0.16 nM | 0.142 nM | ~0.000628 nM
4 | B4 | – | 0.854 nM | – | – | – | – | – | – | – | – | – | – | – | – | –
5 | B5 | 0.689 nM | 0.804 nM | 0.137 nM | 0.135 nM | 13.6 nM | 3.43 nM | 0.147 nM | 45.4 ng/mL | 3.31 ng/mL | 5.29 ng/mL | 0.137 nM | 0.18 nM | 0.249 nM | 0.237 nM | –
